Reference: a protein production outcome set (Wang et al. 2014)

Assay: label from the status in PepcDB records

Sequence	protein production
MEWEVKEDGYSEEVSSLFLDHLPSKILEAKNRAEQLLTLQEKPILDIAEYNHAKVLAAFQEERVSTYHLQGTTGYGLGDSGRETLDRVMARILGTEAALVRGQFVSGTHAIATALFGVLRPGDHFISVTGDPYDTLEEVIGIRGTGQGSLKDFGVSYDSVPLSEEGTIQHSLVSQGIKPNTKMLILQRSRGYAWRNSLPMEQIAAFVAYVREHFPHLIIFVDNCYGELVEKCEPGDVGADLMAGSLIKNLGGSLAPTGGYIAGRQELVEKAACRLTAPGIGGEVGATLSWQLQFFQGLFFSPLTVSEAIRGAIFSAAFWQALGFEVNPLPDALRTDLIQAVKLNSREAMIAFCQGFQKGSPVDSHVLPIPSGMPGYEDEVIMAGGTFIQGATSEFSADGPMRDPFIAYQQGGVSMNYIKFGNLLAAQKLWEQGLLK	failed
MEYDEKLARFRQAHLNPFNKQSGPRQHEQGPGEEVPDVTPEEALPELPPGEPEFRCPERVMDLGLSEDHFSRPVGLFLASDVQQLRQAIEECKQVILELPEQSEKQKDAVVRLIHLRLKLQELKDPNEDEPNIRVLLEHRFYKEKSKSVKQTCDKCNTIIWGLIQTWYTCTGGPRPRRGVRNERDQSSCLRWAHIQM	failed
MEYGHHARPDSKRPLDEGSPAAAGLTSKKANEALTRNRELTTVLVKNLPKSYNQNKVYKYFKHCGPIIHVDVADSLKKNFRFARIEFARYDGALAAITKTHKVVGQNEIIVSHLTECTLWMTNFPPSYTQRNIRDLLQDINVVALSIRLPSLRFNTSRRFAYIDVTSKEDARYCVEKLNGLKIEGYTLVTKVSNPLEKSKRTDSATLEGREIMIRNLSTELLDENLLRESFEGFGSIEK	not failed
MEYIKPHKGFSTLIILGITLGIDLIFSLLSTFINTYIVLRILEIFIVFFNIYQLYYILKSLTLKYCYDNENFYVLWCFGIRRVTIPFKEIEAYNVSHGEIKGVKLWGYGRNFFALGTFSVNDIGIVNMFVTATKNVIYIKCNSSIYGISPEKCDEVKNFLEKRKLVLKNWTYEKRNKVSLSKDRHFDILIFLISIVILMVTIIPFILYLRGVMPHKMPLSFDSNFKPMIYGTSREFAFKHMMYGAYNMIIFFCIYYSAYFYARYSKKLAYRLMYISFLVAFIFLIFQFKIYVTYIH	failed
MEYILYISRFLYRIRWWLLIGTAIITFAVYYFGKRMIGKTYNVEATLYTGAASGYNLEGGNNKVDWATTQNAMDNLMNIIKAESTLKRVSIRLYARSLIKGNPKEDNEFIKASNYNRIYEHLKNSPNGKEILSLIDKNSEDKTVANFFNYLRPTQANYLYGVFYYNLPYYSYNDLRAIRVARKGASDLIEISYTASDPGIAYNTIDILTKEFVNEYSAIRYGETDKVIEYFKSELQRIGKELRLKEDSLTQYNVEKRVINYYDETKEIAAINKEFELREQNVLIAYNSAKAMLNELEKQMGSNAKHVINNLQFLDKLNEAASLTGKISEMETISSDHQNQEASLQEYKNRLNQTRKELSELSNKYVENKYTKEGIAKENIIEQWLEVTMQYEKAKSDLQIIQQSRIDLNEKYRQFAPVGSTIKRQERNITFIEQNYLSVLKSYNDALMRRKNLEMTSAALKVLNAPAYPISAMPTPLKKMVMAACAGTFLFILGFFLILELLDRTLRDSIRTRRLIGLPMLGAFPKDSILEYHNHVEESKSIATKQLSNSILRFCQQKKEGLPYIINFISTEGGEGKSYVIEALKKYWNSIGLKTKVITWKSDFRIDSREYNLAKSITDLYTSEEEDILIVEYPNLREASISLELLQEANLNILVARADRGWKETDKLLSEKLSQQVGKTPLYVYLTHASRNVVEDYTGMLPPYTLWRKIVYRLSQLALTESIFTFTKRKKQPATSGDEDDE	failed
MEYSRDSAEMMMETKRNVYSLEDNKIKRHKSSDLSFSSKERKDKLAERISALQQLVSPYGKTDTASVLLEGMQYIQFLQEQVKVLSAPYLQATPSTTEEEVEEYSLRSKGLCLVPLEYTSEVAQTNGADIWAPVKTPTSSHAFNLSSSNSPFQ	failed
MEYTPFSLILDVGWISGLMIIGNIMRRKIPFFQTLLIPSSITAGIIGMILGPKVLGLIGWSDHLSTYTTVLIAIVFASMPYSMKFDRGVRTGMKTMWAYSTAMFVGQWGLFILLGLFLFQPVWGTDEWFGMMLPVGFVGGFGTAAAVGTALESSGAEAAMSLGFTSATVGTFAAIVGGIIFTTWGIKKGKTAAMPAQLPWDLRSGYIDKLSDRPSIGKASTNPSAIEPLALHTGIILLTVAVAYSINQWLGSMFPTVQIPLFAMSFVVGIVGMGIMRLLKKPEYLDRDTVNSVSGAATDYLIAFGIASIAPAAIADYWVPLVVLFVLGTIYCCFFFFWVAPRFFGEKWLERAIFGWGWATAAVATGIALLKIVDPKLKSGALNEYGVAYIGFAPFEIGMTIIAPIAVLAGFTMGLGWASLIVAIVIFGLAWGLKWLPERGHVRGEGKPQ	failed
MFADISAQHWAFAIYVIGAIAICLTMIGLAALLGGRAQGRTKNKPFESGVDSVGTARLRFSAKFYLVAMFFVIFDVEALYLFAWSVSVRESGWVGFIEATIFIGLLLIGLVYLWRIGALEWSPRKPQLNNKNTD	failed
MFAERRMNVQKKLKIMAARDRNRFRPLFEGDEEVDMLYLNCNVASRPSLSCDGLVCIPIPGWINVLNPSTGEFLRFSSGRDPRLINDFECVDSKFDVFPGFWTMGFGRDNVNGSYKIVRMLFDRHFENRYCQILDVNIGEWRKQRQPPYFVGYREKSACVNGSIYWSQALIRCKLLAFDLYSEEFRDVPTPPRSEICERSCQIVNLEDRLVLAVTYTTSLHWNVKIWSMDAHDGTRSITYSIRLFSKDMNSSIMNHFQLWFWTRPLAVSKRGNLFFHDNEKRL	failed
MFAHIGEDYVVNSSELLLIMSYDIFMSSEDNLRILESLKNEDRLVVINDDLKKSIIILEIDGRLYAIVSPVSSTTIAKRFLNFNYYVDNYLDESLEHHHHHH	not failed
MFARFLAQLDFVLTCDRLKTALRTTRLHDGSRLENSAEHSWHLALLALTLAEYAPTGTDVGRVVRLLLMHDLVEIGAGDLSFDAPAEAQAAQQEAEARAAAELFGLLPTDQAAEFLGLWQEFEARQTTEVRFARALDALQPMLLTWGPGAQGCAASHPELTHLRVLGLKEKHLREFPELWAAAQGVMAQAQARGVLQPLEHHHHHH	failed
MFCVSLILQTLKQPNVHRQVLAIALPMVLSNITVPLLGLVDAAVIGHLEHAWYLGGVALGSTMISVTFWLLGFLRMSTTGLTAQAHGAQNSQQLARVLLQGSVIALGLAALFLLFHRPVAELIFHFSDASSEVKTYAEAYFYIRAWSAPAALLNFVLLGWLLGTQNARAPMWMVIITNLTNIVLDLLLVLGLGLKVEGAAIASVIADYAGLLFGLLCVGRYWRQHQLPAPFSFIPSLTKELSRLVALNRDIFLRSLCLQAVFSFMTFQGAALGDDIVAANAVLMSFLMMISYGMDGFAYAMEAMVGKAIGAKDDRQLRTAMISSTFWATMICLLLSLIFLGFGSDLIQMITNIPSVQATAEHYLPWLVAMPLIAVWCFLLDGVFIGATKGKEMRNSMAVSAVAFFAIYGFMTHYGNHALWLAMLSFMALRGFTLGATFYTQWRAGTFLPARFSI	failed
MFDLSSIVDNEQTSDALEDVVMGLIINAGQARSLAYNALKQAKAGDFAQADELMAQSRSALNDAHLVQTQLIEADQGEGKTKVTLVLVHAQDHLMNAMLARELITELIELHQKIQ	failed
MFEQIIAILFPVMSLVLIGYLIGLWLKPDFRPINRINMEAFVPALVFSSLVNMPLDTQQTPLLLAALVAVLLPGILMLLICRLGRWSFKTWAPLHMFRNSGNLAIPLFTYAFGETALPSAVLLFVVSMCLHISLGVAMLSKGSVLKTVLSAPVFLASSLALLLNLSGVSIWSPLYNATALLGQAAVPVMLLSLGSQMINLRLAGLKVGLVSTAQSLLTGACAFTVIYFFIPLPPLQLQMMVLFTMLPPAVMNYLFAERYHIEPTQVAAMVLFGNFFSLLSLPILLFIALSL	failed
MFESLGFEETTAKEISVLLGLSLGVLFGLLAERTRFCFRRAVVGEDARQAAGVWFTALAVAILGTQASVASGLIGFADHRLLSSDLPVLAVVLGGLMFGAGMVLTRGCISRLTVLGGTGNLRALTVLLVFAVVAHAMLKGVLAPLRTSLGAVTVDLGETVSLAALPGGAALWTALLALASLLIAARSGNRALPLLGAALIGLLVPLGWVGTGYVLFDEFDPITMESLSFTAPAADTLFYTIASTSIAPGFGTGLVGGVLLGALAAALLFGSFRWQSFDSPRQTGRYLAGATLMGMGGVLAGGCTLGAGLAGIPTLSLAALLALTAIALGARLTDAALNAASSGSAGYPATPGQQPAE	failed
MFFSEARARSRTWEASPSEHRKWVEVFKACDEDHKGYLSREDFKTAVVMLFGYKPSKIEVDSVMSSINPNTSGILLEGFLNIVRKKKEAQRYRNEVRHIFTAFDTYYRGFLTLEDFKKAFRQVAPKLPERTVLEVFREVDRDSDGHVSFRDFEYALNYGQKEA	failed
MFGYRSNVPKVRLTTDRLVVRLVHDRDAWRLADYYAENRHFLKPWEPVRDESHCYPSGWQARLGMINEFHKQGSAFYFGLFDPDEKEIIGVANFSNVVRGSFHACYLGYSIGQKWQGKGLMFEALSAAIRYMQRTQHIHRIMANYMPHNKRSGDLLARLGFEKEGYAKDYLLIDGQWRDHVLTALTTPDWTPGR	failed
MFIAIHSQSFFSPEMDMVASRDRRPPPATIRREPFQLIRIKAAGLAAEGVNAMTSVFTRSAVACAIALAAAAISQAGAQGLKKYESGTKEFWTNPPPDWFLGDETEAQKGLAPPAGPPTGSSDAELAAMIKKIKLPPGFKIEVYASGVLSARQMAWGDNGTLFVGSFGVGSVYAITDKDGKKQVKTILKGLKMPTGLAFRDGALYVVDIDKLIRYDNAEANLDNLGSGKVVYDDMPSYVAHGWKYLAADKDGWFYVPFGPPFNIGIPPTSVSQIRRVDPKTGNAEIVALGVRNSVGGDVDPRSGKYWFTENARDWISDDMPSDKLNMISKLGEHFGYPYCHQGDMPDPKFAMGHKCSEFTPPVLNLGAHVAPLGMKFYTGDQFPAEYKNNIFIAEHGSWNRHKYQGGLIKRVIADPDGKNAKQEDFATGWIEGDQGYLGRPADIVLAKDGSMLVADDWAGAIYRISYSK	failed
MFIERMTNLAQGLVVAAVHAGSIAEEMEIECGDQILAIDGQEIGDIIDFQYLTAEDEFTLLLEKAGGELWELEIERSYGEELGLEVQAVSSHGLKLCRNNCIFCFVAQMPPGMRASLYDKDDDYRLSLTQGSFITLSNLDEDEFERILKFHFSPLYISVHAWDAEARVRLMKNPRAGDLSSQLKRLAGAGIQIHSQIVLVPGYNDGEVLEQTVRELGNLHPSVQSIAVVPVGLTKHRANLPDLRPFTPEEAWSILAKGEMWQKEYRRKTGRSLVYFSDEFYASAGRDYPSIEIYDDFAQLENGVGMASKFRQEFDYALQSLPPAIPQRKVHLITGVSAAPFFEDLLKKLTPIEGLTVQRHTIINSFFGPTVTVAGLLTAQDIAGQIGNIKGEIFLIPRVMLKADEEVFLDDRSVEWLAEELQGIPLVVENQGRAFLEAVTGLDLEGEDCE	failed
MFISDKSRPTDFYKDDHHNSSTTSTTRDMMIDVLTTTNESVDLQSHHHHNHHNHHLHQSQPQQQILLGESSGEDHEVKAPKKRAETWVQDETRSLIMFRRGMDGLFNTSKSNKHLWEQISSKMREKGFDRSPTMCTDKWRNLLKEFKKAKHHDRGNGSAKMSYYKEIEDILRERSKKVTPPQYNKSPNTPPTSAKVDSFMQFTDKGFDDTSISFGSVEANGRPALNLERRLDHDGHPLAITTAVDAVAANGVTPWNWRETPGNGDDSHGQPFGGRVITVKFGDYTRRIGVDGSAEAIKEVIRSAFGLRTRRAFWLEDEDQIIRCLDRDMPLGNYLLRLDDVCKTHLAGLAIRVCHYDESNQLPVHSEEKIFYTEEDYREFLARQGWSSLQVDGFRNIENMDDLQPGAVYRGVR	failed
MFKAPFSFDGRIRRIEYFLSGIIGGIVFGVAYSLGLATLFLGAAAGSAGGSLFGILIGIVAGIASIWFSLAQGVKRLHDLNKSGWLILICCVPIIGWVFSLYMLFADGTVGPNQYGEDPKNRMPYQPQPTSVNVTVNVSRETPAEAPAEEEKTEKAE	failed
